Measured values: US20170313754A1 (PROTAGONIST THERAPEUTICS, published 2017)
Numbered stars: 1 amine (or outer) side, 2 acyl side, 3 side chain; on linkers, the order of the positions; unused ones are H or OH. Bridge positions count the residues as written; N and C are the ends. Square brackets hold non-standard residues; d marks the D form. Primed or numbered codes have the meaning given here. Side chains are listed from the residue outwards. Ends that are not written are not given here. * marks the point of attachment. PEG3″ = NH2CH2CH2(OCH2CH2)3CH2CH2CO2H (PEG3 linker), NCCOCCOCCOCCCCC(=O)*; Ida = iminodiacetic acid, O=C(CN(CC(=O)[*:3])[*:1])[*:2]; γGlu = O=C(O)[C@H](CCC(=O)[*:2])N[*:1]; Palmitoyl = CCCCCCCCCCCCCCCC(=O)*; dapa = diaminopropionic acid; Lauroyl = CCCCCCCCCCCC(=O)*; Decanoyl = CCCCCCCCCC(=O)*; Isovaleryl = CC(C)CC(=O)*; Octanoyl = CCCCCCCC(=O)*; Albu = not defined here; Dap = NC[C@H](N)C(=O)O; Hexanoyl = CCCCCC(=O)*; Butyryl = CCCC(=O)*

T1: human ferroportin (SLC40A1) fused in frame with GFP, stably expressed in HEK293 cells (human, UniProt Q9NP59 1-571)
T1 sequence (looked up): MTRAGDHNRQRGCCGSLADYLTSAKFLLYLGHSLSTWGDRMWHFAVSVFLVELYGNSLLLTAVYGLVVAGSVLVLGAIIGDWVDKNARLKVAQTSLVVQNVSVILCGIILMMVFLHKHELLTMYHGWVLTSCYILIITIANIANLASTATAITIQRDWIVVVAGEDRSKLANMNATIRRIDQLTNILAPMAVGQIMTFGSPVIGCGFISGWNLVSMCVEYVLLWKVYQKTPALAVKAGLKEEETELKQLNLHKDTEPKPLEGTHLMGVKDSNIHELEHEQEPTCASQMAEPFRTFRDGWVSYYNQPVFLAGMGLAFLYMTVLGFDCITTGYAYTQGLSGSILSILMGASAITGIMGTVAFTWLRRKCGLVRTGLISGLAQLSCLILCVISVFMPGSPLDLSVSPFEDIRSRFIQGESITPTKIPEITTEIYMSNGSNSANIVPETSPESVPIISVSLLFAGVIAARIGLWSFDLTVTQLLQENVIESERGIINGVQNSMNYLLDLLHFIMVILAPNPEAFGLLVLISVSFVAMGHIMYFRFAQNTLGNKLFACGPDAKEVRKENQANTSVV


Target: T1, human ferroportin (SLC40A1) fused in …
Assay: cell-based or functional assay

Potency EC50 (nM), ferroportin-GFP internalization/degradation	Binder
502 nM	[Ida]THFPCIKFEPRSKGWVCK(Ac)-NH2 (disulfide 6-18 (inferred)) [[Ida]-THFPCIKFEPRSKGWVC-K(Ac)-NH2]
7 nM	DTHFPCIKFKPRSKGWVC (not fully specified; N-terminal isovaleric acid; K(mysteric acid) at Lys 10; C-terminal amide) [Isovaleric acid-DTHFPCIKF-K(mysteric acid)-PRSKGWVC-NH2]
> 500 nM	Isovaleryl-DTHAPCIKFGPRSKGWVCK-NH2 (not fully specified (bridges); cysteine pairing not given here) [Isovaleric acid-DTHAPCIKFGPRSKGWVCK-NH2]
52 nM	[Ida]THFPCIKFEPRSKGWVCK(Lauroyl)-NH2 (disulfide 6-18 (inferred)) [[Ida]-THFPCIKFEPRSKGWVC-K(lauric acid)-NH2]
> 10000 nM	H-DTHFPIAIFAAICI-NH2 [Hy-DTHFPIAIFAAICI-NH2]
> 1000 nM	H-DTHFPCIKFGPRSKGWVCK-NH2 (disulfide 6-18 (inferred)) [Hy-DTHFPCIKFGPRSKGWVCK-NH2]
191 nM	[Ida]THFPCIKFEPRSKGWVCK(Hexanoyl)-NH2 (disulfide 6-18 (inferred)) [[Ida]-THFPCIKFEPRSKGWVC-K(hexanoic acid)-NH2]
116 nM	[Ida]THFPCIKFEPRSKGWVCK(Decanoyl)-NH2 (disulfide 6-18 (inferred)) [[Ida]-THFPCIKFEPRSKGWVC-K(decanoic acid)-NH2]
> 300 nM	Isovaleryl-HFPCIKFEPRSKGWVCK(Octanoyl)-NH2 (disulfide 4-16 (inferred)) [Isovaleric acid-HFPCIKFEPRSKGWVC-K(octanoic acid)-NH2]
> 10000 nM	H-DTHFPIICI-NH2 [Hy-DTHFPIICI-NH2]
129 nM	[Ida]THFPCIKFEPRSKGWVCK(Octanoyl)-NH2 (not fully specified (bridges); cysteine pairing not given here) [[Ida]-THFPCIKFEPRSKGWVC-K(octanoic acid)-NH2]
4 nM	DTHFPCIKFEPRSKGCKK (N-terminal isovaleric acid; K(isoglu-Palm) at Lys 18; C-terminal amide) [Isovaleric acid-DTHFPCIKFEPRSKGCK-K(isoglu-Palm)-NH2]
60 nM	Isovaleryl-ATHFPCIKFGPRSKGWVCK-NH2 (disulfide 6-18 (inferred)) [Isovaleric acid-ATHFPCIKFGPRSKGWVCK-NH2]
29 nM	DTHFPCIKFKPRSKGWVC (N-terminal isovaleric acid; K(Ac) at Lys 10; C-terminal amide) [Isovaleric acid-DTHFPCIKF-K(Ac)-PRSKGWVC-NH2]
30 nM	DTHFPCIKFKPRSKGWVC (not fully specified; N-terminal isovaleric acid; K(octanoic acid) at Lys 10; C-terminal amide) [Isovaleric acid-DTHFPCIKF-K(octanoic acid)-PRSKGWVC-NH2]
4 nM	Isovaleryl-DTHFPCIKFEPRSKK([γGlu-Palmitoyl])CK-NH2 (disulfide 6-16 (inferred)) [Isovaleric acid-DTHFPCIKFEPRSK-K(isoglu-Palm)-CK-NH2]
6 nM	DTHFPCIKFKPRSKGWECK (N-terminal isovaleric acid; K(isoGlu-Palm) at Lys 10; C-terminal amide) [Isovaleric acid-DTHFPCIKFK(isoGlu-Palm)-PRSKGWECK-NH2]
6 nM	Isovaleryl-DTHFPCIKFEPHSK(Albu)GCK-NH2 (not fully specified (bridges); cysteine pairing not given here; reading uncertain) [Isovaleric acid-DTHFPCIKFEPHS-K(Albu)-GCK-NH2]
10 nM	DTHFPCIKFKPRSKGWVC (not fully specified; N-terminal isovaleric acid; K(lauric acid) at Lys 10; C-terminal amide) [Isovaleric acid-DTHFPCIKF-K(lauric acid)-PRSKGWVC-NH2]
> 10000 nM	Isovaleryl-DTHAPCIKFEPRSKGWECK-NH2 (not fully specified (bridges); cysteine pairing not given here) [Isovaleric acid-DTHAPCIKFEPRSKGWECK-NH2]
> 10000 nM	H-DTHFPIAIFAICI-NH2 [Hy-DTHFPIAIFAICI-NH2]

Potency EC50 (nM), ferroportin-GFP internalization/degradation	Binder
37 nM	DTHFPCIKFKPRSKGWVC (N-terminal isovaleric acid; K(butyric acid) at Lys 10; C-terminal amide) [Isovaleric acid-DTHFPCIKF-K(butyric acid)-PRSKGWVC-NH2]
355 nM	[Ida]THFPCIKFEPRSKGWVCK(Butyryl)-NH2 (disulfide 6-18 (inferred)) [[Ida]-THFPCIKFEPRSKGWVC-K(butyric acid)-NH2]
8 nM	Isovaleryl-DTHFPCIKFEPK([γGlu-Palmitoyl])SKGWECK-NH2 (not fully specified (bridges); cysteine pairing not given here) [Isovaleric acid-DTHFPCIKFEPK(isoGlu-Palm)-SKGWECK-NH2]
> 10000 nM	H-DTHICIAIF-NH2 [Hy-DTHICIAIF-NH2]
> 1000 nM	{Palmitoyl-PEG3″}-DTHFPCIKFGPRSKGWVCK-NH2 (disulfide 6-18 (inferred)) [Palm-PEG3-DTHFPCIKFGPRSKGWVCK-NH2]
20 nM	[Ida]THFPCIKFEPRSKGWVCK(mysteric acid)-NH2 (disulfide 6-18 (inferred)) [Ida-THFPCIKFEPRSKGWVC-K(mysteric acid)-NH2]
> 1000 nM	Palmitoyl-DTHFPCIKFGPRSKGWVCK-NH2 (disulfide 6-18 (inferred)) [Palm-DTHFPCIKFGPRSKGWVCK-NH2]
10 nM	Isovaleryl-DTHFPCIKFEPRSKGCK([Dap-Palmitoyl])K-NH2 (disulfide 6-16 (inferred)) [Isovaleric acid-DTHFPCIKFEPRSKGC-K(dapa-Palm)-K-NH2]
5 nM	Isovaleryl-DTHFPCIKFEPK([γGlu-Palmitoyl])SKGCK-NH2 (not fully specified (bridges); cysteine pairing not given here) [Isovaleric acid-DTHFPCIKFEP-K(isoglu-Palm)-SKGCK-NH2]
50 nM	Isovaleryl-DTHFPCIKAGPRSKGWVCK-NH2 (not fully specified (bridges); cysteine pairing not given here) [Isovaleric acid-DTHFPCIKAGPRSKGWVCK-NH2]
10 nM	Isovaleryl-DTHFPCIKFEPK([Dap-Palmitoyl])SKGCK-NH2 (not fully specified (bridges); cysteine pairing not given here) [Isovaleric acid-DTHFPCIKFEP-K(dapa-Palm)-SKGCK-NH2]
> 10000 nM	H-DTHFPIAICI-NH2 [Hy-DTHFPIAICI-NH2]
> 10000 nM	H-DTHFPIAIFICI-NH2 [Hy-DTHFPIAIFICI-NH2]
7 nM	Isovaleryl-DTHFPCIKFEPRSK([Dap-Palmitoyl])GCK-NH2 (not fully specified (bridges); cysteine pairing not given here) [Isovaleric acid-DTHFPCIKFEPRS-K(dapa-Palm)-GCK-NH2]
> 10000 nM	H-DTHFPIAIICI-NH2 [Hy-DTHFPIAIICI-NH2]
17 nM	Isovaleryl-DTHFPCIK([dapa-Palmitoyl])FEPRSKGCK-NH2 (not fully specified (bridges); cysteine pairing not given here) [Isovaleric acid-DTHFPCI-K(dapa-Palm)-FEPRSKGCK-NH2]
21 nM	DTHFPCIKFKPRSKGWVC (N-terminal isovaleric acid; K(hexanoic acid) at Lys 10; C-terminal amide) [Isovaleric acid-DTHFPCIKF-K(hexanoic acid)-PRSKGWVC-NH2]
> 10000 nM	H-DTHFPIAIFAAGICI-NH2 [Hy-DTHFPIAIFAAGICI-NH2]
15 nM	Isovaleryl-DTHFPCIKFEPRSKKWVCK-NH2 (disulfide 6-18 (inferred)) [Isovaleric acid-DTHFPCIKFEPRSKKWVCK-NH2]
22 nM	DTHFPCIKFKPRSKGWVC (N-terminal isovaleric acid; K(decanoic acid) at Lys 10; C-terminal amide) [Isovaleric acid-DTHFPCIKF-K(decanoic acid)-PRSKGWVC-NH2]
480 nM	{4,4‑5,5‑6,6,6‑heptafluorohexanoic acid}-DTHFPCIKFGPRSKGWVCK-NH2 (disulfide 6-18 (inferred)) [4,4-5,5-6,6,6-Heptafluorohexanoic acid-DTHFPCIKFGPRSKGWVCK-NH2]
